What was measured:
[1] = target: HA-tagged LGR4 nt-24 variant (-8 AA) (human, UniProt Q9BXB1-1 25-951, p.(His207_Arg214)); test: cell-based or functional assay
[2] = target: HA-tagged LGR4, wild type (human, UniProt Q9BXB1-1 25-951); test: cell-based or functional assay

TOP-Flash luciferase reporter of Wnt/β-catenin signaling in HEK293T cells transfected with LGR4, stimulated by RSPO1 (fold over basal) [1]: 3.3 fold
TOP-Flash luciferase reporter of Wnt/β-catenin signaling in HEK293T cells transfected with LGR4, stimulated by RSPO1 (fold over basal) [2]: 6.1 fold
B1: GFP-tagged RSPO1 (ligand, UniProt Q2MKA7 21-263, looked up)
chain: SRGIKGKRQRRISAEGSQACAKGCELCSEVNGCLKCSPKLFILLERNDIRQVGVCLPSCPPGYFDARNPDMNKCIKCKIEHCEACFSHNFCTKCKEGLYLHKGRCYPACPEGSSAANGTMECSSPAQCEMSEWSPWGPCSKKQQLCGFRRGSEERTRRVLHAPVGDHAACSDTKETRRCTVRRVPCPEGQKRRKGGQGRRENANRNLARKESKEAGAGSRRRKGQQQQQQQGTVGPLTSAGPA

— PMC9927937, “Loss of LGR4/GPR48 causes severe neonatal salt wasting due to disrupted WNT signaling altering adrenal zonation” (The Journal of Clinical Investigation, 2023)
